The record followed here is patent US20110287023A1.

Where only a bound is given, the exact number is not on record here.

In the experiment the target is HMG1 purified from calf (bovine) thymus (bovine) (UniProt P10103). Kind of experiment: cell-based or functional assay.
Chain of HMG1 purified from calf (bovine) thymus (bovine) (P10103 2-215 limits assumed): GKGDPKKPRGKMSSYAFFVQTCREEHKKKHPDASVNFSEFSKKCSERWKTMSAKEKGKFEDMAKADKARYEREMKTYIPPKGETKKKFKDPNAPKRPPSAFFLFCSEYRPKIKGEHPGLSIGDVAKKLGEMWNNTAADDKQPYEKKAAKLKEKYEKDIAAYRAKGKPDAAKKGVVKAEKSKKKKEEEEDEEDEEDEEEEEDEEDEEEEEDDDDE

For the substance “RAGE-Fc fusion protein (species not stated)”, the IFN-α release (HMGB/CpG-A mediated enhanced TLR9 signaling) was greater than 95%.
